According to the nanobody polyreactivity screen of Harvey et al. (2022):

Assay: yeast display, Sf9 membrane polyspecificity reagent, FACS + sequencing; frameworks hold sequencing errors
Method in brief: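 Galactose-induced (36–48 hours) yeast carrying a synthetic nanobody display library were exposed to 10% biotinylated, detergent-solubilized Sf9 membrane reagent at 4 °C for 1 hour. FACS followed streptavidin microbead enrichment, using low and high (top ~1%) gates for expression (anti-HA) and reagent binding (streptavidin). Colony PCR, MiSeq 2 × 250 sequencing and CDR-length filtering followed. Labels for polyreactivity reflect the gate of origin.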
With “QVQLVESGGGLVQAGGSLRLSCAASGSIFWYNAMGWYRQAPGKERELVAAIRWRGGSTYYADSVKGRFTISRDNAKNTVYLQMNSLKPEDTAVYYCAAQVYVSQLYTSYYYWGQGTQVTVSS” the “polyreactivity (PSR sort gate)” value was “high polyreactivity”.
In the case of “QVQLVESGGGLVQAGGSLRLSCAASGSIFWYNAMGWYRQAPGKERELVAAISVGGGSTSSADSVKGRFTISRDNAKNTVYLQMHSLKPEDTAVYYCNSVRYYRLFAHYGEYGYWGQGTQVTVSS”, the “polyreactivity (PSR sort gate)” value was “high polyreactivity”.
For “QVQLVESGGGLVQAGGSLRLSCAASGSIFWYNAMGWYRQAPGKERELVAGITSGGDTNYADSVKGRFTISRDNAKNTVYLQMNSLKPEDTAVYYCAKRWYGGRRYDYWGQGTQVTVSS”, the “polyreactivity (PSR sort gate)” value was “low polyreactivity”.
For “QVQLVESGGGLVQAGGSLRLSCAASGSIFWYYAMGWYRQAPGKERELVAAISRSGGSTYYADSVKGRFTISRDNAKNTVYLQMNSLKPEDTAVYYCAAGYSSLRRFGVYYWGQGTQVTVSS”, the “polyreactivity (PSR sort gate)” value was “high polyreactivity”.
For “QVQLVESGGGLVQAGGSLRLSCAASGSIFWYYAMGWYRQAPGKERELVAGITRGGSTSYADSVKGRFTISRDNAKKTVYLQMNSLKPEDTAVYYCAKRNPYSRYGYWGQGTQVTVSS”, the “polyreactivity (PSR sort gate)” value was “high polyreactivity”.
With “QVQLVESGGGLVQAGGSLRLSCAASGSIFYAYAMGWYRQAPGKERELVAAISASGGSTYYADSVKGRFTISRDNAKNTVYLQMNSLKPEDTAVYYCAALTYSTYQTAYRRYPKNKYWGQGTQVTVSS” the “polyreactivity (PSR sort gate)” value was “high polyreactivity”.
With “QVQLVESGGGLVQAGGSLRLSCAASGSIFYAYAMGWYRQAPGKERQLVAAIRSSDSRTYYADSVKGRFTISRDNAKNTVYLQMNSLKPEDTGVYYCDADGSRKVKFDYWGQGTQVTVSS” the “polyreactivity (PSR sort gate)” value was “high polyreactivity”.
With “QVQLVESGGGLVQAGGSLRLSCAASGSIFYAYAMGWYRQAPRKERELVAAITRSGGSTYYADSVKGRFTISRDNAKNTVYLQMNSLKPEDTAVYYCAAVSRSRRMDFWGQGTQVTVSS” the “polyreactivity (PSR sort gate)” value was “high polyreactivity”.
With “QVQLVESGGGLVQAGGSLRLSCAASGSIFYAYTMGWYRQAPGKERELVASITKSGGSTYYADSVKGRFTISRDNAKNTVYLQMNSLKPEDTAVYYCAAAFNRYGTTSYWYRHYYWGQGTQVTVSS” the “polyreactivity (PSR sort gate)” value was “high polyreactivity”.
In the case of “QVQLVESGGGLVQAGGSLRLSCAASGSIFYDKAMGRYRQAPGKEREFVAAISLRTGRTYYADSVKGRFTISRDNAKNTVYLQMNSLKPEDTAVYYCAARGYYGPKYYYWGQGTQVTVSS”, the “polyreactivity (PSR sort gate)” value was “high polyreactivity”.
With “QVQLVESGGGLVQAGGSLRLSCAASGSIFYDNAMGWYRQAPGNERELVAAIDDSDRTNYADSVKGRFTITRDNAKNTVYLQMNSLKPEDTAVYYCARDRWKWHYGYDYWGQGTQVTVSS” the “polyreactivity (PSR sort gate)” value was “low polyreactivity”.
With “QVQLVESGGGLVQAGGSLRLSCAASGSIFYDYAMGWYRQAPGKEREFVAAITSSGGSTYYADSVKGRFTISRDNAKNTVYLQMNSLKPEDTAVYYCAAEDSDAYFIYGYWGQGTQVTVSS” the “polyreactivity (PSR sort gate)” value was “low polyreactivity”.
In the case of “QVQLVESGGGLVQAGGSLRLSCAASGSIFYDYVMGWYRQAPGKERELVAAITRGGRTYYADSVKGRFTISRDNAKNTVYLQMNSLKPEDTAVYYCNAGRHQGYDWGQGTQVTVSS”, the “polyreactivity (PSR sort gate)” value was “high polyreactivity”.
With “QVQLVESGGGLVQAGGSLRLSCAASGSIFYENAMGWYRQAPGKERELVAAISWNAGSTYYADSVKGRFTISRDNAKNTVYFQMNSLKPEDTAVYYCATTADGIRYDYWGQGTQVTVSS” the “polyreactivity (PSR sort gate)” value was “low polyreactivity”.
In the case of “QVQLVESGGGLVQAGGSLRLSCAASGSIFYENMGWYRQSPRKERELVASISWSGTSTYADSVKGRFTISRDNAKNTVYLQMNSLKPEDSAVYYCAAGKNGYTYSRSYSYGYWGQGTQVTVSS”, the “polyreactivity (PSR sort gate)” value was “high polyreactivity”.
With “QVQLVESGGGLVQAGGSLRLSCAASGSIFYEYAMGWYRKAPGKEREFVAAISSSGGSTYYADSVKGRFTISRDNAKNTVYLQMNSLKPEDTAVYYCATQSSVLSWWYDYWGQGTQVTVSS” the “polyreactivity (PSR sort gate)” value was “low polyreactivity”.
In the case of “QVQLVESGGGLVQAGGSLRLSCAASGSIFYEYDMGWYRQAPGKERELVAALDGSADSTYYADSVKGRFTISRDNAKNTVYLQMNSLKPEDTAVYYCNTRYFRWDTEYGYWGQGTQLTVSS”, the “polyreactivity (PSR sort gate)” value was “low polyreactivity”.
In the case of “QVQLVESGGGLVQAGGSLRLSCAASGSIFYFNGLGWSRQSPGKEREFVAAITWGDGSTYYADSVKGRFTISRDNAKNTVYLQMNSLKPADTAVYYCAAVLLIFKYVPRYDYWGQGSQVTVSS”, the “polyreactivity (PSR sort gate)” value was “low polyreactivity”.
In the case of “QVQLVESGGGLVQAGGSLRLSCAASGSIFYFYAMGWYRQAPGKERELVAAISWSGGSTYYADSVKGRFTISRDNAKNTVYLQMNSLKPEDTAVYYCNAADYWYWENDYWGQGTQVTVSS”, the “polyreactivity (PSR sort gate)” value was “low polyreactivity”.
With “QVQLVESGGGLVQAGGSLRLSCAASGSIFYFYTMGWYRQAPGKERELVASITYSGGRTYYADSVKGRFTISRDNAKNTVYLQMNSLKPEDTAVYYCAVRGYRRYWGQGTQVTVSS” the “polyreactivity (PSR sort gate)” value was “high polyreactivity”.
In the case of “QVQLVESGGGLVQAGGSLRLSCAASGSIFYGNALGWYRQAPGKEREFVAAISSSGGSTYYADSVKGRFTISRDNAKNTVYLQMNSLKPEDTAVYYCAARGPKHTHSRRYFTEYDYWGQGTQVTVSS”, the “polyreactivity (PSR sort gate)” value was “low polyreactivity”.
For “QVQLVESGGGLVQAGGSLRLSCAASGSIFYGNAMGWYRQAPGKERELVAAIDGTGASTYYADSVKGRFTISRDNAKNTVYLQMNSLKPEDTAVYYCNKALTSKDYPVRTVERDYWGQGTQVTVSS”, the “polyreactivity (PSR sort gate)” value was “low polyreactivity”.
With “QVQLVESGGGLVQAGGSLRLSCAASGSIFYGNAMGWYRQAPGKERELVAAISESGGSTYYADSVKGRFTISRDNAKNTVYFQMNSLKPEDTAVYYCNSEAWGYYWWWGYDYWGHGTQVTVSS” the “polyreactivity (PSR sort gate)” value was “low polyreactivity”.
In the case of “QVQLVESGGGLVQAGGSLRLSCAASGSIFYGYAMGWYRQAPGKERELVAAISWTGGRTYYADSVKGRFTISRDNAKNTVYLQMNSLKPEDTAVYYCNVRRYSVVSGGYCGQGTQVTVSS”, the “polyreactivity (PSR sort gate)” value was “high polyreactivity”.
In the case of “QVQLVESGGGLVQAGGSLRLSCAASGSIFYGYAMGWYRQSPGKERELVAAISSTGVRSYYADSVKGRFTISRDNAKNTVYLQMNSLKPEDSEVYYCAARRYGPGRYQEDYWGQGSQVTVSS”, the “polyreactivity (PSR sort gate)” value was “high polyreactivity”.
In the case of “QVQLVESGGGLVQAGGSLRLSCAASGSIFYGYTMGWYRQEPGKERELVAAIRKSGGSTNYADSVKGRFTISRDNAKNTVFLQMNSLKPEDTAVYYCAAAYYRGRGYYWGQGTQVTVSS”, the “polyreactivity (PSR sort gate)” value was “high polyreactivity”.
With “QVQLVESGGGLVQAGGSLRLSCAASGSIFYGYVMGCYTQAPGKERELVAAISGGGSTNYADSVKGRFTISRDNAKNTVYLQMNSLKPEDTAVYYCNTEDWAVGSPEVEYEYDYWGQGTQVTVSS” the “polyreactivity (PSR sort gate)” value was “low polyreactivity”.
For “QVQLVESGGGLVQAGGSLRLSCAASGSIFYHNAMGWYRQAPGKERELVAAITWSGSTTYYADSVKGRFTISRDNAKNTVYLQMNSLKPEDTAVYYCNGGYRHGHYDYWGQGTQVTVSS”, the “polyreactivity (PSR sort gate)” value was “low polyreactivity”.
In the case of “QVQLVESGGGLVQAGGSLRLSCAASGSIFYHNAMGWYRQAPGKERELVARISSRGGSTYYADSVKGRFTISRDNAKNTVYLQMNSLKPEDTAVYYCNNAYRYTSAYDYWGQGTQVTVSS”, the “polyreactivity (PSR sort gate)” value was “high polyreactivity”.
For “QVQLVESGGGLVQAGGSLRLSCAASGSIFYHNAMGWYRRAPGKEREFVAAITGSGGSTYYADSVKGRFTISRDNAKNTVYLQMNSLKPEDTAVYYCASVGYTKWWISWGYDYWGQGTQVTVSS”, the “polyreactivity (PSR sort gate)” value was “low polyreactivity”.
For “QVQLVESGGGLVQAGGSLRLSCAASGSIFYHYAMGLYRQAPGKERELVAAISGSGGSTYYADSVKGRFTISRDNAKNTVYLQMNSLKPEDTAVYYCAADTSRYHYTRYFFDSDYWGQGTQVTVSS”, the “polyreactivity (PSR sort gate)” value was “low polyreactivity”.
With “QVQLVESGGGLVQAGGSLRLSCAASGSIFYHYAMGWYRQAPGKERELVAAISSGGSTSYADSVKGRFTISRDNAKNTVYLQMNSLKPEDTAVYYCNARRIRSRSWKYDYWGQGTQVTVSS” the “polyreactivity (PSR sort gate)” value was “low polyreactivity”.
In the case of “QVQLVESGGGLVQAGGSLRLSCAASGSIFYHYAMGWYRQAPGKERELVAGITSSGDRTHYADSVKGRFTISRDNAKNSVYLQMNSLKPEDTAVYYCNTATIHGTAYDYWGQGTQVTVSS”, the “polyreactivity (PSR sort gate)” value was “low polyreactivity”.
For “QVQLVESGGGLVQAGGSLRLSCAASGSIFYHYAMGWYRQAPGKERELVAGITSSGDRTHYADSVKGRFTISRDNAKNTVYLQMNSLKPEDTAVYYCNTATIHGTAYDYWGQGTQVTVSS”, the “polyreactivity (PSR sort gate)” value was “low polyreactivity”.
For “QVQLVESGGGLVQAGGSLRLSCAASGSIFYINAMGCYRQAPGKEREMVAAITSDGSTYYADSVKGRFTISRDNAKNTVYLQMNSLNPEDTAVYYCAADLTSDQYMYYWYWFYSWGQGTQVPVSS”, the “polyreactivity (PSR sort gate)” value was “low polyreactivity”.
In the case of “QVQLVESGGGLVQAGGSLRLSCAASGSIFYINAMGWYRQAPGKEREFVARISWRSGSTSYADSVKGRFTISRDNAKNTVYLQMNSLKPEDTAVYYCNAGDFANDNGGRRDQFTWEDEYWGQGTQVTVSS”, the “polyreactivity (PSR sort gate)” value was “low polyreactivity”.
In the case of “QVQLVESGGGLVQAGGSLRLSCAASGSIFYINAMGWYRQAPGKERELVAAIRSGGSTNYADSVKGRFTISRDNAKNTVYLQMNSLKPEDTAVYYCNARSRSYVPYYYWGQGTQVTVSS”, the “polyreactivity (PSR sort gate)” value was “high polyreactivity”.
With “QVQLVESGGGLVQAGGSLRLSCAASGSIFYINDMGWYRQAPGKERELVAAISWSGGTTYYADSVKVRFTISRDNAKNTVYLQMNSLKPEDTAVYYCATDYFFLFPWGLSDYWGQGTQVTVSS” the “polyreactivity (PSR sort gate)” value was “low polyreactivity”.
For “QVQLVESGGGLVQAGGSLRLSCAASGSIFYINDMGWYRQAPGTERELVAAISWSGGTTYYADSVKGRFTISRDNAKNTVYLQMNSLKPEDTAVYYCATDSFFLFPWGLSDYWGQGTQVTVSS”, the “polyreactivity (PSR sort gate)” value was “low polyreactivity”.
For “QVQLVESGGGLVQAGGSLRLSCAASGSIFYKNAMAWYRQAPGKERELVAAITWSGGSTYYADSVKGRFTISRDNAKNTVYLHMNSLKPEDTAVYYCAAGLYRYRKYGYWGQGTQVTVSS”, the “polyreactivity (PSR sort gate)” value was “low polyreactivity”.
For “QVQLVESGGGLVQAGGSLRLSCAASGSIFYLYAMGWYRQAPGKEREFVAAITSSSGSTHYADSVKGRFTISRDNAKNTVYYQMNSLKPEDTAVYYCAKDYGPWTYDYWGQGTQVTVSS”, the “polyreactivity (PSR sort gate)” value was “low polyreactivity”.
